# Measurements published in paper doi:10.64898/2025.12.02.691773.
# Target: DH-CRBN (human) (UniProt Q96SW2)
# Test: split reporter
# Set-up: unit not given beside the values
Substance,AUC of the growth curve with pomalidomide,AUC of the growth curve without compound (DMSO)
CHD8 full domain (FD) (from UniProt Q9HCK8 1-2581) (domain or fragment),5130,3220
SPART FD (from UniProt Q8N0X7 1-666) (domain or fragment),2800,1780
